Reference: the RNAGym collection of RNA variant scans (doi:10.1073/pnas.2313332121)
This sample holds only a part of the variants without activity.

B1: TPR 5TU (parent)
chain: GGAUCUUCUCGAUCUAACAAAAAAGACAAAUCUGCCACAAAGCUUGAGAGCAUCUUCGGAUGCAGAGGCGGCAGCCUUCGGUGGCGCGAUAGCGCCAACGUUCUCAACUAUGACACGCAAAACGCGUGCUCCGUUGAAUGGAGUUUAUCAUG

Variants of: B1
Assay: polymerase ribozyme fitness, log enrichment relative to wild type (log ratio); higher = more active; in vitro selection for triplet polymerase activity
Summary of the method: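 One round of in vitro selection, in triplicate, was applied to PCR-built, transcribed mutant libraries of each subunit of a heterodimeric triplet polymerase ribozyme. The steps were annealing with a biotinylated primer, partner subunit and triplets, incubation frozen at −7 °C, gel excision of extended constructs, streptavidin-bead capture and RT-PCR. Fitness is the logarithm, base 2, of genotype enrichment over wild-type enrichment from inverse-variance-weighted replicate averages of Illumina-sequenced inputs and outputs, keeping genotypes with ≥10 input reads and ≥1 read per output.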

Row | Variant | polymerase ribozyme fitness (log ratio)
1 | C5G G94C A122C | -1.03
2 | U4G A23U G68A U127A | ≤ -4.2
3 | A3G U6A U33G G50A C79U C129A | ≤ -4.2
4 | C5A C14U C32A U33A A47U U82G G92U G126C U135G | ≤ -4.2
5 | U4C C32G C103G | ≤ -4.2
6 | U4C G58C | 0.358
7 | C5G A20C C32A G50C G124C G141C | ≤ -4.2
8 | C5G U15G A49U A91U C116A C149G | ≤ -4.2
9 | C5A C35A C38U G74U C87A U148A | ≤ -4.2
10 | C5G U6C C57A C85U | -1.26
11 | A3U A29C G68C A73G | ≤ -4.2
12 | U4A C76A C93A A115G G124C C149U | ≤ -4.2
13 | C5A U53A C93U C125A G152A | -4.17
14 | U4G G50C C118U | ≤ -4.2
15 | C5G C96G G141U | -0.469
16 | C5G C85U | -1.17
17 | C5G C85G | -1.46
18 | C5A G58C A60G G92A A121U | -1.56
19 | U4A U7A G42C G48C A66C G67A C72U U101G | ≤ -4.2
20 | A3U A30U G34U G58A C87G C95U C131G | ≤ -4.2
21 | C5A A24U A40C A52C | -0.908
22 | U4G G34A C96G A97U C123A C132A | ≤ -4.2
23 | U4A A60U A97C U109A | -3
24 | A3G G94A C114U | -2.39

Row | Variant | polymerase ribozyme fitness (log ratio)
25 | C5A A20C A41G C93A A147C | -1.66
26 | A3U C35U U77C G84C A89G C118U | ≤ -4.2
27 | C5G G59A | -0.858
28 | A3U A16C U45A C75A U82G G84A C118U | ≤ -4.2
29 | U4G C5U U55G A106C | -2.25
30 | U4G U6A U13A C14A U33A A39G | ≤ -4.2
31 | C5A C96A G143C | -3.53
32 | A3U G50U U145C | -0.472
33 | A3U U56A G88C U145G | -3.98
34 | C5G U44A G59A A121C A122G | ≤ -4.2
35 | A3U A20C U31G C36A | ≤ -4.2
36 | C5A A26U G50A C51U A106C U139G | ≤ -4.2
37 | A3U | -0.0169
38 | U4A C27U C38U C51U A106G U109A | -3.72
39 | C5G A52C C76G G81A A91U | ≤ -4.2
40 | U4G A22U U148C | -3.08
41 | C5G C18G G48U U53A C103G | -3.62
42 | U4G G46A | -0.673
43 | C5G A17U G74A A91G G141U | ≤ -4.2
44 | C5G C43U A73U G92U U134A U144C | ≤ -4.2
45 | C5G G81A A98G A121U G143C | -2.76
46 | C5A C57A C76U G81A G92C C132U | -2.21
47 | U4A A16U A17U A30C A39G A49U C87G A89C G133C U139C | ≤ -4.2
48 | U4C G58A C103A G124A | -3.54

Row | Variant | polymerase ribozyme fitness (log ratio)
49 | A3U C5G A29U U31C A41C U55A U56C G84A C87U U111G U135A | ≤ -4.2
50 | U4A G94C | -0.637
51 | A3G U55A C93A | -3.2
52 | A3G U6C A64U G70C G86A U90G C93U G133C C149U | ≤ -4.2
53 | C5A A12G C35A G42A C96U | ≤ -4.2
54 | U4G G50A C96G U102G C123A | ≤ -4.2
55 | C5A C57U C95U C103G | -2.24
56 | A3U U90C A97G A150G | -3.73
57 | A3U A20C C54U G86C C125U | -4.19
58 | C5A C14G G59A C85A C118G U139A | ≤ -4.2
59 | A3U A28U C57U C75G | ≤ -4.2
60 | U4G A23C A30U A52C U56A | ≤ -4.2
61 | A3U A16G C36A G92C G124C C131A G136U | ≤ -4.2
62 | U4A U6G G67C U82A U130G G143C | ≤ -4.2
63 | A3U A37C G84U | -2.36
64 | A3U A30C C36A A60U G84A C85A G140C U146C | ≤ -4.2
65 | U4G A21C U56G C85U G124U | -1.58
66 | C5G C32U U53G A73U C85U | ≤ -4.2
67 | C5G C18G A41C G152U | -3.98
68 | U4C A147C | -0.0283
69 | C5A C93A | -1.25
70 | A3G U53A C54U C95U | -1.48
71 | A3U U9A A23C C27G G81A C85G C132A | ≤ -4.2
72 | C5G A37U C43U A98G A121G | ≤ -4.2

Row | Variant | polymerase ribozyme fitness (log ratio)
73 | U4A C35A U53C C96G A122U | ≤ -4.2
74 | U4C C5A U15C C36G U53A | -4.12
75 | U4A G94U U102C | -3.03
76 | A3U A73G C79G C93A C116U G117U A138U | ≤ -4.2
77 | U4G C54G G80C G92U A115C | ≤ -4.2
78 | A3U U13G | 0.0481
79 | U4G A30G A91G G94C G128U C132A | ≤ -4.2
80 | U4C A23C C43U G46A G84A C105G C118U A119C | ≤ -4.2
81 | A3U C85G C125A U144A | -3.46
82 | U4G A12C U15A G80C U90G G126C G143C | ≤ -4.2
83 | C5A A12G G84A G88A A97U C116A | -3.84
84 | U4A G136A | 0.134
85 | A3U U6G G48A A107G | ≤ -4.2
86 | U4A A16U A29U U55G C72G U127A | ≤ -4.2
87 | C5A C75U U90C A91G A150G | ≤ -4.2
88 | C5A A24U C36U G86A C87A U90G C93A | ≤ -4.2
89 | C5G A17G U61A G67A C93A C95U G140U | ≤ -4.2
90 | A3U A89C C95A A110C | ≤ -4.2
91 | U4C C51A U82A C96A | ≤ -4.2
92 | U4A C10U A23C C57U G81A G92C A115C C118A | ≤ -4.2
93 | A3U A39G G58C C96U | -3.39
94 | A3U C5U C35G A37G G86U A89G U104C C125G C131G | ≤ -4.2
95 | A3U U144G | 0.419
96 | C5G A17G C32U A49C C54U U55G G88C C96A | ≤ -4.2

Row | Variant | polymerase ribozyme fitness (log ratio)
97 | C5G A24C A28C U55G G58A C63U C105G A137G U151G | ≤ -4.2
98 | C5G A21U C27U G46A G94C C105G G126A | ≤ -4.2
99 | C5A C36G A49C U61A G84A | ≤ -4.2
100 | A3U C27U G81A C96A | -3.11
101 | A3U A24U A52U A60G G92U | -2.23
102 | C5A U55A G58C G68U G81A A91U C96A | ≤ -4.2
103 | U4C A20U A64C C85G U101C C118U | ≤ -4.2
104 | C5G A24C G48A A52C C85U G140U | ≤ -4.2
105 | A3U A52C C75U G92U C103G U134G | ≤ -4.2
106 | A3G U56A C96A U134A | -3.26
107 | U4C C76U | -0.762
108 | C5G G11U A17U A39U C57G A73G C79U A138G G141C U144G | ≤ -4.2
109 | C5G C51A | -1.01
110 | C5G A17G C93G C95U | -3.96
111 | C5A C14G | -0.996
112 | C5G C76U G84U A113U A122U | -4
113 | C5A G11C G50U G58C C85A | -2.8
114 | U4A A52G C57A G126U | -1.17
115 | A3U C5G A21U A30G C93A U148A | ≤ -4.2
116 | U4A A21G G68A A73G G86U A142G | ≤ -4.2
117 | U4G A73G G92U A107U A122U | -3.96
118 | C5G G84A C96A | -1.4
119 | U4G C10G A24U C35U U55G G83A C116A | ≤ -4.2
120 | C5G A23G A52U C87G C99A | ≤ -4.2

Row | Variant | polymerase ribozyme fitness (log ratio)
121 | A3U C96U | -0.0857
122 | U4A C8U G46C C93A G100A C118U | ≤ -4.2
123 | U4C U15C C87A A121C | ≤ -4.2
124 | U4A A41G G84A U139G U146C | -0.701
125 | U4G C18U C51U G80C A91G C95G C105U U109A A119U | ≤ -4.2
126 | U4G A47C C51U G80A G84A G94U A97U | ≤ -4.2
127 | C5A G74A G81U U139G | -3.53
128 | C5A A22U A24U C27G A39C C57U A60U C85G | ≤ -4.2
129 | C5G G141A | 0.249
130 | C5G G84A A147C | -0.43
131 | C5A A29C G50U C51U G88A U90C | ≤ -4.2
132 | C5A A29U A52C G74A A97G | ≤ -4.2
133 | A3U C32U G59A G83C C129U A137C | ≤ -4.2
134 | U4C A47C G84A G88A G92U A142G | ≤ -4.2
135 | U4G C36A U55A U61A C76U C87U | ≤ -4.2
136 | C5A G11U A21C C54U C57A C87U | -1.42
137 | A3U A26U G42C G58U C87A C125U C131G C132G | ≤ -4.2
138 | A3U C10U U15C | -1.19
139 | U4A C8U A29C A41C G58A C75A C79U G83A | ≤ -4.2
140 | U4G C87A A98G U130G | ≤ -4.2
141 | U4C A24U U61A | -1.7
142 | C5A C76U C93A | -1.5
143 | C5A U6G A28U A52C G84C A110G | ≤ -4.2
144 | U4A C36G C131A G136A | ≤ -4.2

Row | Variant | polymerase ribozyme fitness (log ratio)
145 | C5G A21U G59A | -0.0281
146 | U4A C18G A19U U31A U135C | -4.1
147 | U4C U53A A121C U144C | -1.34
148 | U4G G67A C85U C116A A122U A150U G152C | ≤ -4.2
149 | U4A U6A A40U G46C C96A C118A | -3.94
150 | U4G A37C G50U G59U G86U | -3.71
151 | U4C C36G G50A C51A C75A G83A G112U C116A | ≤ -4.2
152 | A3U U4C G88U G92U A97G | ≤ -4.2
153 | A3U G59A C75U C93A A138G | -3.95
154 | U4A C93U | -1.34
155 | C5G A52C C85U | -2.14
156 | A3U U6G C35U C76U C87G C103A A137C G152A | ≤ -4.2
157 | C5G U6G U61C C85U | -3.57
158 | C5G C10U C57U C95U | -2.04
159 | C5A C54U | 0.00554
160 | U4G C99U | -0.868
161 | C5A G68C G80C C85G A138G | ≤ -4.2
162 | C5G G152C | -2.87
163 | C5A C85A | -1.31
164 | C5G G50A G59C C76A G83A C103G C114A | ≤ -4.2
165 | C5A A12U U13A U15A G83U C95U A107U C108U | ≤ -4.2
166 | A3U C18G A21U C57U C85U G94A A121U | -1.04
167 | U4C U56G G83A C87A | ≤ -4.2
